The results in this text go back to patent US20250041387A1 (BEIJING STOMATOLOGICAL HOSPITAL CAPITAL MEDICAL UNIVERSITY, published 2025).

The target of this assay is WD repeat domain 5 (WDR5), human, endogenous in human mesenchymal stem cells (human, UniProt P61964 2-334). Briefly: Co-IP with HA antibody, stem cells from apical papilla overexpressing HA-KDM6B.

Protocol: On the next day, the cells were added with Protein A/G beads and rotated on a rotary shaker at 4° C. for 2 hours. […] All cells were incubated overnight to form a complex of protein-antibody-agarose bead. […] (2) Grouping: Input group (loading amount of 25 μg); antibody group (loading amount of 800 μg, 2 μg of antibody); IgG group (loading amount of 800 μg, 2 μg of antibody). Samples were diluted with lysate. […] (3) Preparation of protein A/G beads

B1: HA-KDM6B (full-length KDM6B with HA tag, overexpressed in stem cells from apical papilla) (enzyme)
chain: MHRAVDPPGARAAREAFALGGLSCAGAWSSCPPHPPPRSAWLPGGRCSASIGQPPLPAPLPPSHGSSSGHPSKPYYAPGAPTPRPLHGKLESLHGCVQALLREPAQPGLWEQLGQLYESEHDSEEATRCYHSALRYGGSFAELGPRIGRLQQAQLWNFHTGSCQHRAKVLPPLEQVWNLLHLEHKRNYGAKRGGPPVKRAAEPPVVQPVPPAALSGPSGEEGLSPGGKRRRGCNSEQTGLPPGLPLPPPPLPPPPPPPPPPPPPLPGLATSPPFQLTKPGLWSTLHGDAWGPERKGSAPPERQEQRHSLPHPYPYPAPAYTAHPPGHRLVPAAPPGPGPRPPGAESHGCLPATRPPGSDLRESRVQRSRMDSSVSPAATTACVPYAPSRPPGLPGTTTSSSSSSSSNTGLRGVEPNPGIPGADHYQTPALEVSHHGRLGPSAHSSRKPFLGAPAATPHLSLPPGPSSPPPPPCPRLLRPPPPPAWLKGPACRAAREDGEILEELFFGTEGPPRPAPPPLPHREGFLGPPASRFSVGTQDSHTPPTPPTPTTSSSNSNSGSHSSSPAGPVSFPPPPYLARSIDPLPRPPSPAQNPQDPPLVPLTLALPPAPPSSCHQNTSGSFRRPESPRPRVSFPKTPEVGPGPPPGPLSKAPQPVPPGVGELPARGPRLFDFPPTPLEDQFEEPAEFKILPDGLANIMKMLDESIRKEEEQQQHEAGVAPQPPLKEPFASLQSPFPTDTAPTTTAPAVAVTTTTTTTTTTTATQEEEKKPPPALPPPPPLAKFPPPSQPQPPPPPPPSPASLLKSLASVLEGQKYCYRGTGAAVSTRPGPLPTTQYSPGPPSGATALPPTSAAPSAQGSPQPSASSSSQFSTSGGPWARERRAGEEPVPGPMTPTQPPPPLSLPPARSESEVLEEISRACETLVERVGRSATDPADPVDTAEPADSGTERLLPPAQAKEEAGGVAAVSGSCKRRQKEHQKEHRRHRRACKDSVGRRPREGRAKAKAKVPKEKSRRVLGNLDLQSEEIQGREKSRPDLGGASKAKPPTAPAPPSAPAPSAQPTPPSASVPGKKAREEAPGPPGVSRADMLKLRSLSEGPPKELKIRLIKVESGDKETFIASEVEERRLRMADLTISHCAADVVRASRNAKVKGKFRESYLSPAQSVKPKINTEEKLPREKLNPPTPSIYLESKRDAFSPVLLQFCTDPRNPITVIRGLAGSLRLNLGLFSTKTLVEASGEHTVEVRTQVQQPSDENWDLTGTRQIWPCESSRSHTTIAKYAQYQASSFQESLQEEKESEDEESEEPDSTTGTPPSSAPDPKNHHIIKFGTNIDLSDAKRWKPQLQELLKLPAFMRVTSTGNMLSHVGHTILGMNTVQLYMKVPGSRTPGHQENNNFCSVNINIGPGDCEWFAVHEHYWETISAFCDRHGVDYLTGSWWPILDDLYASNIPVYRFVQRPGDLVWINAGTVHWVQATGWCNNIAWNVGPLTAYQYQLALERYEWNEVKNVKSIVPMIHVSWNVARTVKISDPDLFKMIKFCLLQSMKHCQVQRESLVRAGKKIAYQGRVKDEPAYYCNECDVEVFNILFVTSENGSRNTYLVHCEGCARRRSAGLQGVVVLEQYRTEELAQAYDAFTLAPASTSR
notes: whole, on cells; Full-length protein expressed inside human SCAPs and pulled down from lysate with HA antibody; also called PQCXIN-HA-KDM6B; SCAPs-HA-KDM6B; not shown: HA tag
Take B1: the binding result was “binds”.
